Measurements reported in patent US20230257479A1 (Genmab, published 2023).
Residue numbers refer to the chain shown, from its start. Names may count otherwise.

Columns and labels:
[1] = target: T1, full length human 5T4 (SEQ ID NO: 1) on cells (human, UniProt Q13641 32-420); assay: flow cytometry, HEK-293 cells transfected with human 5T4, FITC secondary [I)D]
T1 construct: Uniprot Q13641; residues 1-31 are the signal peptide; Used both for transfected HEK-293 cells and for 5T4-expressing human tumor cell lines
T1 sequence: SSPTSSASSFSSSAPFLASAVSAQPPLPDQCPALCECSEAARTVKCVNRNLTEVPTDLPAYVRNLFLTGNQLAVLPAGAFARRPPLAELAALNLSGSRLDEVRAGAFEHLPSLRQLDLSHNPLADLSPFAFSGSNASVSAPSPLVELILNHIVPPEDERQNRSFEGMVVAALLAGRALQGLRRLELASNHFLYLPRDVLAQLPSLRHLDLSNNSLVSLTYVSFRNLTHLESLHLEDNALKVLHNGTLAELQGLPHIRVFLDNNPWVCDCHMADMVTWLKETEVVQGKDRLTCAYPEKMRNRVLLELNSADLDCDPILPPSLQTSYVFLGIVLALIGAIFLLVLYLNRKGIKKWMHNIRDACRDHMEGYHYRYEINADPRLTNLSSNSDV

[2] = target: T2, full length cynomolgus monkey 5T4 on transfected HEK-293 cells (cynomolgus monkey, UniProt Q4R8Y9 35-420); assay: flow cytometry, HEK-293 cells transfected with cynomolgus monkey 5T4, FITC secondary [I)D]
T2 construct: Uniprot Q4R8Y9; residues 1-34 are the signal peptide; also called cynomolgus 5T4
T2 sequence: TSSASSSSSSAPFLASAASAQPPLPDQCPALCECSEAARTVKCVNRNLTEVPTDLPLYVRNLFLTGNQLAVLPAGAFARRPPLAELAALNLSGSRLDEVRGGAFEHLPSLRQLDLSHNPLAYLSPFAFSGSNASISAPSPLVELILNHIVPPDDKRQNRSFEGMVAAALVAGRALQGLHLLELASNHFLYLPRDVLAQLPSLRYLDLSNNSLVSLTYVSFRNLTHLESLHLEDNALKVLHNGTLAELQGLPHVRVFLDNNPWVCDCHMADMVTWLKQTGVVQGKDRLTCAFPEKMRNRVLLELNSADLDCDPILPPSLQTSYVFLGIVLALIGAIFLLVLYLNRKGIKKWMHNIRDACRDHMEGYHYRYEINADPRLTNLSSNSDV

[3] = target: T3, human 5T4ECDHis (mature protein of SEQ ID NO: 99) (human, UniProt Q13641 32-355); assay: BLI cross-block; competitor (immobilised): IgG1-5T4-127-FEAR
T3 construct: ECD of human 5T4 (aa 1-355 of Uniprot Q13641) with C-terminal His tag; residues 1-31 are the signal peptide; also called ECD of human 5T4 with a C-terminal His tag
T3 sequence: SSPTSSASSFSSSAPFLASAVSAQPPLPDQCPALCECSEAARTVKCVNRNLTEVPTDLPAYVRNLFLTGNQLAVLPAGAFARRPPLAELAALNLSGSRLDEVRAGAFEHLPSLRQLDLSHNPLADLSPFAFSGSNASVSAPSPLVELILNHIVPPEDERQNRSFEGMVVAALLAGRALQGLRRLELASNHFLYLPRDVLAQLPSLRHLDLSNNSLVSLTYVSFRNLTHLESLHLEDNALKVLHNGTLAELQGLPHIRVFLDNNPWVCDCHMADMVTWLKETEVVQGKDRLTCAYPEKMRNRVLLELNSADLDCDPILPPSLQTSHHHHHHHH

[4] = target: T3, human 5T4ECDHis (mature protein of SEQ …); assay: BLI cross-block; competitor (immobilised): IgG1-5T4-207-FEAR
[5] = target: T3, human 5T4ECDHis (mature protein of SEQ …); assay: BLI cross-block; competitor (immobilised): IgG1-5T4-226-FEAR
[6] = target: T3, human 5T4ECDHis (mature protein of SEQ …); assay: BLI cross-block; competitor (immobilised): IgG1-5T4-076-FEAR
[7] = target: T3, human 5T4ECDHis (mature protein of SEQ …); assay: BLI cross-block; competitor (immobilised): IgG1-5T4-106-FEAR
[8] = target: T1, full length human 5T4 (SEQ ID NO: 1) on …; assay: flow cytometry, HEK-293 cells transfected with human 5T4, PE secondary [II)D]
[9] = target: T3, human 5T4ECDHis (mature protein of SEQ …); assay: BLI, antibody on anti-human IgG Fc Capture biosensor, antigen in solution
[10] = target: T3, human 5T4ECDHis (mature protein of SEQ …); assay: BLI cross-block; competitor (immobilised): IgG1-5T4-A3-F405L
[11] = target: T3, human 5T4ECDHis (mature protein of SEQ …); assay: BLI cross-block; competitor (immobilised): IgG1-5T4-H8-FEAR
[12] = target: T3, human 5T4ECDHis (mature protein of SEQ …); assay: BLI cross-block; competitor (immobilised): IgG1-5T4-085-FEAR
[13] = target: T3, human 5T4ECDHis (mature protein of SEQ …); assay: BLI cross-block; competitor (immobilised): IgG1-5T4-059-FEAR
[14] = target: T2, full length cynomolgus monkey 5T4 on …; assay: flow cytometry, HEK-293 cells transfected with cynomolgus monkey 5T4, PE secondary [II)D]
[15] = target: T3, human 5T4ECDHis (mature protein of SEQ …); assay: BLI cross-block; competitor (immobilised): IgG1-5T4-A1-F405L
[16] = target: T1, full length human 5T4 (SEQ ID NO: 1) on …; assay: flow cytometry, HEK-293 cells transfected with human 5T4, PE secondary [II)F]
[17] = target: T2, full length cynomolgus monkey 5T4 on …; assay: flow cytometry, HEK-293 cells transfected with cynomolgus monkey 5T4, PE secondary [II)F]
[18] = target: T1, full length human 5T4 (SEQ ID NO: 1) on …; assay: flow cytometry, OE33 cells, R-PE secondary
[19] = target: T1, full length human 5T4 (SEQ ID NO: 1) on …; assay: flow cytometry, HEK-293 cells transfected with human 5T4, PE secondary [II)A]
[20] = target: T1, full length human 5T4 (SEQ ID NO: 1) on …; assay: flow cytometry, SK-GT-4 cells, R-PE secondary
[21] = target: T1, full length human 5T4 (SEQ ID NO: 1) on …; assay: flow cytometry, MDA-MB-231 cells, FITC secondary [I)A]
[22] = target: T1, full length human 5T4 (SEQ ID NO: 1) on …; assay: flow cytometry, SCC-9 cells, R-PE secondary
[23] = target: T1, full length human 5T4 (SEQ ID NO: 1) on …; assay: flow cytometry, HeLa cells, FITC secondary [I)A]
[24] = target: T1, full length human 5T4 (SEQ ID NO: 1) on …; assay: flow cytometry, MDA-MB-231 cells, PE secondary [III)A]
[25] = target: T1, full length human 5T4 (SEQ ID NO: 1) on …; assay: flow cytometry, FaDu cells, R-PE secondary
[26] = target: T1, full length human 5T4 (SEQ ID NO: 1) on …; assay: flow cytometry, HeLa cells, PE secondary [II)A]
[27] = target: T1, full length human 5T4 (SEQ ID NO: 1) on …; assay: flow cytometry, NCI-H292 cells, R-PE secondary
[28] = target: T2, full length cynomolgus monkey 5T4 on …; assay: flow cytometry, HEK-293 cells transfected with cynomolgus monkey 5T4, FITC secondary [I)A]
[29] = target: T2, full length cynomolgus monkey 5T4 on …; assay: flow cytometry, HEK-293 cells transfected with cynomolgus monkey 5T4, PE secondary [II)A]

B1: bsIgG1-huCD3-H101G-FEALx5T4-H8-FEAR (bispecific antibody)
heavy: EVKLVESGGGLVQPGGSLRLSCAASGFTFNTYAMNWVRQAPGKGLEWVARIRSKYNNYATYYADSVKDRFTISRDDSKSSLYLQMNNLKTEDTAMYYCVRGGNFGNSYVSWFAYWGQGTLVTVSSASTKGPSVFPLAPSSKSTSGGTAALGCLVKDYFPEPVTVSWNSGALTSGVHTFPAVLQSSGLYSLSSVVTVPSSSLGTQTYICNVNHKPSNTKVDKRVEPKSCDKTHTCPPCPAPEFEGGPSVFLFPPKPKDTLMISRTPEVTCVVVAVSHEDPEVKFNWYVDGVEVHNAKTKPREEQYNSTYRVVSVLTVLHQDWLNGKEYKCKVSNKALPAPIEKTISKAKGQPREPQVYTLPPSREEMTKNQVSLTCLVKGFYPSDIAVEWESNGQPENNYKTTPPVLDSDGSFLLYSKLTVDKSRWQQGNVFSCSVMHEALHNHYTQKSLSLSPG
light: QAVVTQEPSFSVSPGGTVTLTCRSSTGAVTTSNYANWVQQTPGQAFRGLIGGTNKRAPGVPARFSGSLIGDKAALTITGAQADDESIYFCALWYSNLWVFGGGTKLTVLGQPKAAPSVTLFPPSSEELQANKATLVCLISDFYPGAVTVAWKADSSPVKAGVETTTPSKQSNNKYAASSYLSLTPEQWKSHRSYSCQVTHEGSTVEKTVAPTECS
VH: EVQLQQSGPDLVKPGASVKISCKASGYSFTGYYMHWVKQSHGKSLEWIGRINPNNGVTLYNQKFKDKAILTVDKSSTTAYMELRSLTSEDSAVYYCARSTMITNYVMDYWGQVTSVTVSS
VL: SIVMTQTPTFLLVSAGDRVTITCKASQSVSNDVAWYQQKPGQSPTLLISYTSSRYAGVPDRFIGSGYGTDFTFTISTLQAEDLAVYFCQQDYNSPPTFGGGTKLEIK
notes: Fab-arm exchange product
In the case of B1, the binding result [1] is reported as “binds” and the “EC50 (read off the curve)” value [2] is reported as ~0.1 µg/mL.

B2: IgG1-5T4-106-FEAR (antibody, V domains shown)
VH: EVQLVQSGAEVKKPGESLKISCKGSGYRFTSYWIGWVRQMPGKGLEWMGIIYPGDSDARYSPSFQGQVTISADKSISTAYLQWSSLKASDTGMYYCARSVLFDYWGQGTLVTVSS
VL: AIQLTQSPSSLSASVGDRVTITCRASQGISSALAWYQQKPGKAPKLLIYDVSNLESGVPSRFSGSGSGTDFTLTISSLQPEDFATYYCQQFNSYPHTFGQGTKLEIK
notes: Monospecific, bivalent human IgG1 kappa with L234F, L235E, D265A, K409R (FEAR)
B2 showed a corrected association response [3] of -0.01 nm, a corrected association response [4] of -0.01 nm and a corrected association response [5] of -0.02 nm. For the same binder, the corrected association response [6] was -0.02 nm, the corrected association response [7] was -0.02 nm and the “EC50 (read off the curve)” value [8] was ~0.01 µg/mL. The Kd [9] was 5.5 nM, the koff [9] was 0.0012 s⁻¹ and the kon [9] was 210000 M⁻¹ s⁻¹. For the same binder, the corrected association response [10] was 0.57 nm, the corrected association response [11] was -0.01 nm and the corrected association response [12] was -0.01 nm. The corrected association response [13] was 0.01 nm, the binding result [14] was “binds” and the corrected association response [15] was 0.85 nm.

B3: bsIgG1-huCD3-H101G-FEALx5T4-085-FEAR (bispecific antibody)
heavy: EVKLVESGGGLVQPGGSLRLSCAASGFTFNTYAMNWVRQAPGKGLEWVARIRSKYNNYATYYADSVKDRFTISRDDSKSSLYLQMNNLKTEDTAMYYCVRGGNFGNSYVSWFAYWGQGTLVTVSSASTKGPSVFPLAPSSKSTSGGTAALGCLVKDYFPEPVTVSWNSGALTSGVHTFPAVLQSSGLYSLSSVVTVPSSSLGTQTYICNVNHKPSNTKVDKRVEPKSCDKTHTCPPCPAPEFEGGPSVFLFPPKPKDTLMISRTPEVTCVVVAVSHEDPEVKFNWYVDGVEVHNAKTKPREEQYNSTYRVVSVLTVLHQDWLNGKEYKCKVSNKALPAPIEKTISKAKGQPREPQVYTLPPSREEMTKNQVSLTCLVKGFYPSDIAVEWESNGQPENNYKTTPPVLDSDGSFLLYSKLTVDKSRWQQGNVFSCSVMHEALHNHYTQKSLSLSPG
light: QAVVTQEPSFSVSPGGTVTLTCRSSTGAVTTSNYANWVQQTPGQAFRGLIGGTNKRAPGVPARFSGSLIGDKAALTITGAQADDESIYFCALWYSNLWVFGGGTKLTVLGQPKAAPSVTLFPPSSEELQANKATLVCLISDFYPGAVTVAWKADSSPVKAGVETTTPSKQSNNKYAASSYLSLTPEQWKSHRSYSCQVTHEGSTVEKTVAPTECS
VH: EVQLLESGGGLVQPGGSLRLSCAASGFTFSSYAMSWVRQAPGKGLEWVSAISGSGGSTYNADSVKGRFTIFRDNSKNTLYLHMNSLRAEDTAVYYCARDPGYNNVEYLDHWGQGTLVTVSS
VL: B2 VL with V51A, N53S, H96L, Q100G, L104V
notes: Fab-arm exchange product
With B3 the “EC50 (read off the curve)” value [16] was ~0.5 µg/mL and the “EC50 (read off the curve)” value [17] was ~0.4 µg/mL.

B4: bsIgG1-huCD3-H101G-FEALx5T4-207-FEAR (bispecific antibody)
heavy 1: not shown
light 1: not shown
heavy 2: QVQLQQWGAGLLKPSETLSLTCAVYGGSFSGYYWTWIRQPPGKGLEWIGEIDHSESTNYNPSLKSRVTISVDTSKNQFSLKLSSVTAADTAVYYCAGWFGELYHYYYGMDVWGQGTTVTVSSASTKGPSVFPLAPSSKSTSGGTAALGCLVKDYFPEPVTVSWNSGALTSGVHTFPAVLQSSGLYSLSSVVTVPSSSLGTQTYICNVNHKPSNTKVDKRVEPKSCDKTHTCPPCPAPEFEGGPSVFLFPPKPKDTLMISRTPEVTCVVVAVSHEDPEVKFNWYVDGVEVHNAKTKPREEQYNSTYRVVSVLTVLHQDWLNGKEYKCKVSNKALPAPIEKTISKAKGQPREPQVYTLPPSREEMTKNQVSLTCLVKGFYPSDIAVEWESNGQPENNYKTTPPVLDSDGSFFLYSRLTVDKSRWQQGNVFSCSVMHEALHNHYTQKSLSLSPG
light 2: not shown
notes: also called CD3x5T4 bispecific antibody
With B4 the “EC50 (read off the curve)” value [18] was ~0.08 µg/mL, the “EC50 (read off the curve)” value [19] was ~0.06 µg/mL and the “EC50 (read off the curve)” value [20] was ~0.08 µg/mL. The “EC50 (read off the curve)” value [21] was ~0.1 µg/mL, the “EC50 (read off the curve)” value [22] was ~0.08 µg/mL and the “EC50 (read off the curve)” value [23] was ~0.04 µg/mL. The “EC50 (read off the curve)” value [24] was ~0.04 µg/mL, the “EC50 (read off the curve)” value [25] was ~0.06 µg/mL and the “EC50 (read off the curve)” value [26] was ~0.04 µg/mL. For the same binder, the “EC50 (read off the curve)” value [27] was ~0.03 µg/mL, the “EC50 (read off the curve)” value [28] was ~0.1 µg/mL and the “EC50 (read off the curve)” value [29] was ~0.03 µg/mL.
